Results as given in publication PMC3762817, “Therapeutic Targeting of Tumor Growth and Angiogenesis with a Novel Anti-S100A4 Monoclonal Antibody” (PLoS ONE, 2013).

Biological target: T1, human recombinant RAGE-Fc Chimera (human, UniProt Q15109 23-342)
T1 construct: RAGE (receptor for advanced glycation end products), human; also called RAGE receptor; immobilized RAGE; source: bought: R&D Systems
Assay: SPR; Biacore T100; about 1,000 RU of RAGE-Fc immobilised on a CM5 chip by amine coupling; S100A4 0.625-5 µM passed over at 15 µL/min, 60 s contact time; regeneration with 50 mM NaOH
Settings: both partners purified

T1 sequence (Q15109 23-342, change not shown): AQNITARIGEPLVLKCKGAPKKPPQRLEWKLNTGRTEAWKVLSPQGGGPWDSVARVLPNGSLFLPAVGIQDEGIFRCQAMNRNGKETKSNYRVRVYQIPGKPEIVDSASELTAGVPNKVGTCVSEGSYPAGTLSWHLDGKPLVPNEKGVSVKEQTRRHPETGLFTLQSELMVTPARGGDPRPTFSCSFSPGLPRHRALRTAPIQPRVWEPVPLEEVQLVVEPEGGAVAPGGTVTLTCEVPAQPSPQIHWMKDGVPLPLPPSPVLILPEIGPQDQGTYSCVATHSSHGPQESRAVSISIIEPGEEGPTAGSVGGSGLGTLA

binding result: binds
B1: human recombinant S100A4 (natural protein)
chain: not shown
notes: S100A4, human; The His tag is inferred, and its removal is not mentioned; also called S100A4 fusion protein
